This note sets out measurements from patent publication US7169892B2, “Lipid-peptide-polymer conjugates for long blood circulation and tumor specific drug delivery systems” (Astellas Pharma Inc., priority 2003, dated 2007).

The star is where a group is joined. amidopropyl polyoxyethylene methyl ether = C-terminal amidopropyl PEG methyl ether; Fmoc = O=C(OCC1c2ccccc2-c2ccccc21)*

This test concerns the target T1, MMP-2 (Homo sapiens, UniProt P08253).
T1 sequence (P08253 110-660): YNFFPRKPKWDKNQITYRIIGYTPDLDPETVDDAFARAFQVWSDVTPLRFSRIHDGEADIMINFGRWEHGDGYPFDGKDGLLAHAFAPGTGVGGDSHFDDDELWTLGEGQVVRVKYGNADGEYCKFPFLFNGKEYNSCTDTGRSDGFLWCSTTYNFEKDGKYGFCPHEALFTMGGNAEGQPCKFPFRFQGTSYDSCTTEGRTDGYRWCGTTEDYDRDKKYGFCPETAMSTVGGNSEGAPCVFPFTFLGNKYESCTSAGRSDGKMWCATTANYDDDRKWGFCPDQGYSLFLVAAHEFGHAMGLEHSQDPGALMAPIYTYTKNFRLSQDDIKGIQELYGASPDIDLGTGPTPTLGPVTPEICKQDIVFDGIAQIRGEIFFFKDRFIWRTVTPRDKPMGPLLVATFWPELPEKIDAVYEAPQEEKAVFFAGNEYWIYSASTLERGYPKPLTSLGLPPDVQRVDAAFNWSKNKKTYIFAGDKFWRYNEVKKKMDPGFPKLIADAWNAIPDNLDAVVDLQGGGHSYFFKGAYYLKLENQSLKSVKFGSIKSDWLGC
The experiment in a line: Degradation of Fmoc-GPQGIAGWG-PEG by MMP-2 (gel filtration). Conditions: per unit weight of MMP-2 and unit time, beginning (15 minutes), MMP-2 0.34 μg/ml, 37° C., FIG. 4. The class given is biochemical. The method, then:
After mixing in 0.5 ml of sample in 0.5 ml of acetonitrile, the mixture was filtered and gel filtration was performed.
The effects on degradation by MMP-2 when PEG bonded with Fmoc-GPQGIAGWG (SEQ ID NO:21) were evaluated.
MMP-2 solution was diluted with Tris buffer. […] The final concentration of MMP-2 was 0.34 μg/ml. […] The Fmoc-GPQGIAGWG-PEG (SEQ ID NO:22) in the filtrate was separated and quantitatively determined by gel filtration.
A general note: Size exclusion chromatography separates by hydrodynamic size, large species first.

With “9-fluorenylmethyloxycarbonyl (Fmoc)-glycyl-prolyl-glutamyl-glycyl-isoleucyl-alanyl-glycyl -tryptophanyl-glycyl (Fmoc-Gly-Pro-Gln-Gly-Ile-Ala-Gly-Trp-Gly)-amidopropyl polyoxyethylene methyl ether (Fmoc-GPQGIAGWG-{amidopropyl polyoxyethylene methyl ether}) [Fmoc-GPQGIAGWG-PEG]”, the “degradation rate by MMP-2 compared with Fmoc-GPQGIAGWG” value is “virtually the same”.
